“And” between values parts separate entries of the source, which are not always exact repeats. Equal values may be shown once.
Tests used:
Ac-IEPD-AMC [1] = system: T1, Ac-IEPD-AMC
T1 sequence: XIEPDX

Ac-RRVR-AMC = system: T2, Ac-RRVR-AMC
T2 sequence: RRVR

VEGF165 = VEGF165 (UniProt P15692)
Ac-IAPD-ACC = target: T3, Ac-IAPD-ACC
T3 chain: XIAPDX

Ac-IEFD-AMC [2] = target: T4, Ac-IEFD-AMC
T4 chain: XIEFDX

Ac-IEPD-AMC [3] = target: T5, Ac-IEPD-AMC
T5 chain: XIEPDX

Ac-IETD-AMC [4] = target: T6, Ac-IETD-AMC
T6 chain: XIETDX

Ac-IKPD-AMC [5] = target: T7, Ac-IKPD-AMC
T7 chain: XIKPDX

Ac-LEFD-AMC [6] = target: T8, Ac-LEFD-AMC
T8 chain: XLEFDX

Ac-LEPD-AMC [7] = target: T9, Ac-LEPD-AMC
T9 chain: XLEPDX

[8] = target: T10, extracellular domain of VEGF-R2 (Flk1) fused to the Fc domain of mouse IgG
T10 chain: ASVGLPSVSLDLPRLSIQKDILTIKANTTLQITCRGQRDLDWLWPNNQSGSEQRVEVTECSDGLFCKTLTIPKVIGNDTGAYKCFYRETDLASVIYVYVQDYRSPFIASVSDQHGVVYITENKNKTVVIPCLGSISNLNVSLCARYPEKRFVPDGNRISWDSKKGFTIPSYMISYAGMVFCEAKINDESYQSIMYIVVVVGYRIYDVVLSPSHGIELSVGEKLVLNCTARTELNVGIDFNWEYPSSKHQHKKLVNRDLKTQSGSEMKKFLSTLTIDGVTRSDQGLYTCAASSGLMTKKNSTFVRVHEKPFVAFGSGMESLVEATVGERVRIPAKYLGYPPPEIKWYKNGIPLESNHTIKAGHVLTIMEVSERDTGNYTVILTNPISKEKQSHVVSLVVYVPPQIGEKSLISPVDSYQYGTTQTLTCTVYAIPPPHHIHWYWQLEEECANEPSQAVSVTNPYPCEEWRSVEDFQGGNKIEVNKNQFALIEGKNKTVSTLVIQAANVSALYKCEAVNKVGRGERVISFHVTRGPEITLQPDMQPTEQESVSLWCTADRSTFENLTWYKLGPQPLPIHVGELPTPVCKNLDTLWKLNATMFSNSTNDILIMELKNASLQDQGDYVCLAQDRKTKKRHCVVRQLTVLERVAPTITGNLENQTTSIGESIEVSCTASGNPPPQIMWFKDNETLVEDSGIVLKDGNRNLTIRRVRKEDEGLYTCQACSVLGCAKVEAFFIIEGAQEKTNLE

Ac-IEFD-AMC [9] = target: T4, Ac-IEFD-AMC; test: Michaelis-Menten kinetics of fluorogenic tetrapeptide hydrolysis
Ac-IEPD-AMC [10] = target: T5, Ac-IEPD-AMC; test: as above
Ac-IETD-AMC [11] = target: T6, Ac-IETD-AMC; test: as above
Ac-IKPD-AMC [12] = target: T7, Ac-IKPD-AMC; test: as above
Ac-LEFD-AMC [13] = target: T8, Ac-LEFD-AMC; test: as above
Ac-LEPD-AMC [14] = target: T9, Ac-LEPD-AMC; test: as above
Ac-RQAR-AMC = target: T11, Ac-RQAR-AMC
T11 chain: RQAR

VEGF165, P15692 = target: T12, VEGF165, P15692
T12 chain: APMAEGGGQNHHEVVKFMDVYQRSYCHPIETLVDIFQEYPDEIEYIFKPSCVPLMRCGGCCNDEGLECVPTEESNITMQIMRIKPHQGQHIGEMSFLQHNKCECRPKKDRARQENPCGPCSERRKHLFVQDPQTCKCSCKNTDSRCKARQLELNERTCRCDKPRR

Question: rat granzyme B R192A was tested. Which “specificity constant (kcat/Km)” value (Ac-IEPD-AMC [1]) did it give?
Answer: 55 M⁻¹ s⁻¹

Question: For MT-SP1 mutein CB159 (F99I/L172D/Q175D), which “kcat/Km (specificity constant)” value (Ac-RRVR-AMC) is on record?
Answer: cut the Ac-RRVR-AMC substrate at 2.2 and 2.3×10^5 M^-1s^-1, respectively

Question: What about the “preference of RRVR over RQAR substrate (ratio of kcat/Km)” value (Ac-RRVR-AMC) of the same molecule?
Answer: prefer RRVR to RQAR by greater than 8 fold

Question: What does the source list for MT-SP1 mutein CB152 (F99V/K224F)?
Answer: preference of RRVR over RQAR substrate (ratio of kcat/Km) (Ac-RRVR-AMC): prefer RRVR to RQAR by greater than 8 fold; cleavage of 5 µM VEGF165 by 100 nM protease, 37° C., five hours (SDS-PAGE, silver stain) (VEGF165): while the more selective variant CB152 does not

B1: wild-type rat granzyme B (protein)
chain: IIGGHEAKPHSRPYMAYLQIMDEYSGSKKCGGFLIREDFVLTAAHCSGSKINVTLGAHNIKEQEKMQQIIPVVKIIPHPAYNSKTISNDIMLLKLKSKAKRSSAVKPLNLPRRNVKVKPGDVCYVAGWGKLGPMGKYSDTLQEVELTVQEDQKCESYLKNYFDKANEICAGDPKIKRASFRGDSGGPLVCKKVAAGIVSYGQNDGSTPRAFTKVSTFLSWIKKTMKK
Question: Which results are given for B1?
Answer: Kcat/Km (Ac-IAPD-ACC): 110 M⁻¹ s⁻¹; kcat/Km (Ac-IAPD-ACC): 110 M⁻¹ s⁻¹; Kcat (Ac-IEFD-AMC [2]): 0.15 s⁻¹; Kcat/Km (Ac-IEFD-AMC [2]): 1000 M⁻¹ s⁻¹; kcat (Ac-IEFD-AMC [2]): 0.15 s⁻¹ and 0.154 s⁻¹; kcat/Km (Ac-IEFD-AMC [2]): 1000 M⁻¹ s⁻¹; ΔΔGT^‡ (Ac-IEFD-AMC [2]): 0.71 kcal/mol; Kcat (Ac-IEPD-AMC [3]): 1.2 s⁻¹; Kcat/Km (Ac-IEPD-AMC [3]): 3300 M⁻¹ s⁻¹; kcat (Ac-IEPD-AMC [3]): 1.2 s⁻¹; kcat/Km (Ac-IEPD-AMC [3]): 3300 M⁻¹ s⁻¹; ΔΔGT^‡ (Ac-IEPD-AMC [3]): 0 kcal/mol; Kcat (Ac-IETD-AMC [4]): 0.39 s⁻¹; Kcat/Km (Ac-IETD-AMC [4]): 1600 M⁻¹ s⁻¹; Kcat (Ac-IKPD-AMC [5]): 0.15 s⁻¹; Kcat/Km (Ac-IKPD-AMC [5]): 99 M⁻¹ s⁻¹; kcat (Ac-IKPD-AMC [5]): 0.15 s⁻¹; kcat/Km (Ac-IKPD-AMC [5]): 99 M⁻¹ s⁻¹; kcat (Ac-LEFD-AMC [6]): 0.0087 s⁻¹; kcat/Km (Ac-LEFD-AMC [6]): 14 M⁻¹ s⁻¹; ΔΔGT^‡ (Ac-LEFD-AMC [6]): 3.26 kcal/mol; Kcat (Ac-LEPD-AMC [7]): 0.096 s⁻¹; Kcat/Km (Ac-LEPD-AMC [7]): 87 M⁻¹ s⁻¹; kcat (Ac-LEPD-AMC [7]): 0.096 s⁻¹; kcat/Km (Ac-LEPD-AMC [7]): 88 M⁻¹ s⁻¹; ΔΔGT^‡ (Ac-LEPD-AMC [7]): 2.18 kcal/mol; cleavage of purified VEGFR2-Fc (SDS-PAGE) [8]: The purified VEGFR2-Fc is efficiently cleaved by wild-type and mutant granzyme B ... None of the protease variants (wild-type or mutant) cleave the Fc domain; in vitro cleavage of soluble Flk1-Fc (gel, FIG. 10) [8]: Wild-type granzyme B and the listed muteins cleave the VEGFR-Fc receptor; Km (Ac-IEFD-AMC [9]): 150 µM and 153 µM; Km (Ac-IEPD-AMC [10]): 370 µM; Km (Ac-IETD-AMC [11]): 250 µM; Km (Ac-IKPD-AMC [12]): 1500 µM and 1600 µM; Km (Ac-LEFD-AMC [13]): 600 µM; Km (Ac-LEPD-AMC [14]): 1100 µM

B2: wild-type MT-SP1 protease domain (protein)
chain: VVGGTDADEGEWPWQVSLHALGQGHICGASLISPNWLVSAAHCYIDDRGFRYSDPTQWTAFLGLHDQSQRSAPGVQERRLKRIISHPFFNDFTFDYDIALLELEKPAEYSSMVRPICLPDASHVFPAGKAIWVTGWGHTQYGGTGALILQKGEIRVINQTTCENLLPQQITPRMMCVGFLSGGVDSCQGDSGGPLSSVEADGRIFQAGVVSWGDGCAQRNKPGVYTRLPLFRDWIKENTGV
Question: For B2, which preference of RQAR over RRVR substrate (ratio of kcat/Km) (Ac-RQAR-AMC) is on record?
Answer: 2 times

Question: And the “cleavage of 5 µM VEGF165 by 100 nM protease, 37° C., five hours (SDS-PAGE, silver stain)” value (VEGF165, P15692)?
Answer: MT-SP1 efficiently cleaves VEGF^165 under the assay conditions

Question: And the “cleavage of purified Flk1-Fc by 1 µM protease (SDS-PAGE, Edman sequencing)” value [8]?
Answer: Purified VEGFR2-Fc is cleaved by wild-type and mutant MT-SP1 at the sequence RRVR/KEDE in the extracellular stalk region of the receptor

Question: What about the “cleavage of purified VEGFR2-Fc (SDS-PAGE)” value [8] of the same molecule?
Answer: The purified VEGFR2-Fc is efficiently cleaved by wild-type and mutant MT-SP1 ... None of the protease variants or wild-type cleave the Fc domain

— patent publication US20060024289
